Assay results: patent US20260274955A1 (JANUX THERAPEUTICS, published 2026)

Legend:
[1] = target: T1, Anti-CD28 Fab (SEQ ID NOs: 202, 203); assay: phage binding ELISA, Fab on plate;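 also: clonal phage supernatant ELISA, wells preincubated with CD28 antigen or blocking buffer only, then bound phage detected using HRP-linked anti-M13 antibody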
T1 construct: biotinylated and captured on neutravidin coated plates in the phage ELISA
Method: (§1) After panning, phage infected bacteria were plated out and colonies picked into 96 well blocks. Clonal phage was then amplified and separated from bacterial cells via centrifugation.
(§2) Clonal phage were harvested as crude supernatants and screened via standard ELISAs. […] Prior to the addition of clonal phage, wells were incubated with blocking buffer and CD28 antigen or blocking buffer alone. Without washing or aspirating, clonal phage supernatants were then added to the wells and incubated for a short time. Wells were then washed followed by detection of bound phage using a horse radish conjugated anti-M13 antibody. Clonal phage of interest were then sent for sequence analysis.

[2] = target: T1, Anti-CD28 Fab (SEQ ID NOs: 202, 203); assay: phage binding ELISA, Fab on plate, CD28 as competitor
Method: as §1, §2

[3] = target: anti-CD28 Fab (SEQ ID NOs: 202, 203); assay: phage ELISA, Fab on plate;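 also: ELISA of crude clonal phage supernatants on the plate, wells preloaded with CD28 antigen or only blocking buffer, captured phage read out via HRP-linked anti-M13 antibody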
Sequence of anti-CD28 Fab (SEQ ID NOs: 202, 203) (VH, as listed by the source, chain 1 of 2): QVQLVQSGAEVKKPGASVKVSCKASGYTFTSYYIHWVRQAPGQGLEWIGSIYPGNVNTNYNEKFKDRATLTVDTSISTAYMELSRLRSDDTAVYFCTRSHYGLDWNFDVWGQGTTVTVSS
Sequence of anti-CD28 Fab (SEQ ID NOs: 202, 203) (VL, as listed by the source, chain 2 of 2): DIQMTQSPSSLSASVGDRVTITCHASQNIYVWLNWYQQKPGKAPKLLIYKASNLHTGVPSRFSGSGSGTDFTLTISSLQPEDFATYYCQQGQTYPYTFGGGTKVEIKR
Method: as §1, §2

[4] = target: anti-CD28 Fab (SEQ ID NOs: 202, 203); assay: phage ELISA, Fab on plate, CD28 antigen as competitor;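 also: wells pre-incubated with CD28 antigen in blocking buffer (reference: blocking buffer only) before adding crude clonal phage supernatant, bound phage read with HRP-coupled anti-M13 antibody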
Method: as §1, §2

T1 sequence (VH, as listed by the source, chain 1 of 2): as the sequence (VH, as listed by the source, chain 1 of 2) above
T1 sequence (VL, as listed by the source, chain 2 of 2): as the sequence (VL, as listed by the source, chain 2 of 2) above

Row | Binder | Anti-CD28 Fab (SEQ ID NOs: 202, 203) signal [1] | Anti-CD28 Fab signal in the presence of CD28 [2] | Anti-CD28 Fab signal [3] | Anti-CD28 Fab signal in the presence of CD28 [4]
1 | QCAAGASYPWPVCL [Phage-1008] | 1.82 | 0.07 | – | –
2 | SCSAGAGWAWPMCF [Phage-1196] | – | – | 1.16 | 0.08
3 | TCAAGASYPWPACL [Phage-998] | 1.89 | 0.09 | – | –
4 | LCAAGANYPWPACL [Phage-1053] | 1.66 | 0.07 | – | –
5 | TCAAGAMWVWPTCL [Phage-1052] | 1.66 | 0.07 | – | –
6 | SCSAVFSYRWPKCL [Phage-1195] | – | – | 1.18 | 0.06
7 | TCSAGATFHWPQCF [Phage-1006] | 1.83 | 0.08 | – | –
8 | SCSAGATWAWPQCF [Phage-1194] | – | – | 1.19 | 0.08
9 | TCSAGAMWTWPYCF [Phage-989] | 1.93 | 0.08 | – | –
10 | TCSAGATWAWPSCF [Phage-993] | 1.92 | 0.1 | – | –
11 | TCAAGAYWTWPACF [Phage-990] | 1.93 | 0.09 | – | –
12 | TCSAGATYAWPACY [Phage-1002] | 1.84 | 0.14 | – | –
13 | SCAAGFDYGWPMCL [Phage-1197] | – | – | 1.16 | 0.06
14 | PCSDGVAYPWPYCV [Phage-1191] | – | – | 1.2 | 0.06
15 | TCSAGAYYAWPVCL [Phage-1004] | 1.84 | 0.08 | – | –
16 | LCRAGAMWPWPTCL [Phage-1005] | 1.83 | 0.06 | – | –
17 | LCKPGVPNSWPTCL [Phage-984] | 1.95 | 0.06 | – | –
18 | SCAAVFSFPWSPCL [Phage-999] | 1.87 | 0.08 | – | –
19 | SCADGFNYVWPLCF [Phage-1198] | – | – | 1.14 | 0.08
20 | SCSAGASLQLSICL [Phage-992] | 1.92 | 0.06 | – | –
21 | PCSAGATYAWLYCV [Phage-1011] | 1.81 | 0.06 | – | –
22 | TCSAGATYSWPQCL [Phage-1003] | 1.84 | 0.07 | – | –
23 | TCRAGATYNWPFCL [Phage-996] | 1.9 | 0.07 | – | –
24 | SCAAGAAYPWPACL [Phage-1013] | 1.8 | 0.06 | – | –
25 | TCAAGAGWAWPFCF [Phage-1056] | 1.65 | 0.09 | – | –
26 | SCAAGLSYPWPDCL [Phage-1055] | 1.65 | 0.07 | – | –

Row | Binder | Anti-CD28 Fab (SEQ ID NOs: 202, 203) signal [1] | Anti-CD28 Fab signal in the presence of CD28 [2] | Anti-CD28 Fab signal [3] | Anti-CD28 Fab signal in the presence of CD28 [4]
27 | TCSAGASYPWPVCL [Phage-1048] | 1.67 | 0.07 | – | –
28 | TCSAGATYIWPMCF [Phage-995] | 1.9 | 0.08 | – | –
29 | TCSAGATYNWPWCF [Phage-1047] | 1.68 | 0.05 | – | –
30 | MCSAGAMYPWPLCL [Phage-988] | 1.93 | 0.07 | – | –
31 | TCSAGAGYPWPLCY [Phage-991] | 1.92 | 0.08 | – | –
32 | LCSAGAMYPWPVCL [Phage-1193] | – | – | 1.19 | 0.08
33 | TCSAGAHFAWPMCF [Phage-1045] | 1.69 | 0.07 | – | –
34 | TCAAGANYSWPACL [Phage-1199] | – | – | 1.14 | 0.08
35 | TCAAGAMWQWPVCL [Phage-1010] | 1.81 | 0.06 | – | –
36 | LCKPGVPYQWPTCF [Phage-1009] | 1.82 | 0.05 | – | –
37 | TCSAGAHYVWPMCF [Phage-994] | 1.91 | 0.17 | – | –
38 | TCTAGFSYNWPMCF [Phage-1001] | 1.85 | 0.06 | – | –
39 | TCSAGATWPWPICL [Phage-997] | 1.89 | 0.08 | – | –
40 | SCAAGAHWSWPVCF [Phage-1192] | – | – | 1.2 | 0.08
41 | SCAAGAHYVWPFCF [Phage-1046] | 1.68 | 0.08 | – | –
42 | TCSAGFSYSWPACF [Phage-1000] | 1.86 | 0.07 | – | –
43 | TCSAGAHYEWPYCL [Phage-1007] | 1.82 | 0.11 | – | –
44 | SCAAGATYTWPMCI [Phage-1054] | 1.66 | 0.07 | – | –
45 | LCSAGAMYPWPLCY [Phage-1051] | 1.66 | 0.08 | – | –
46 | WCAAGAMYPWPLCL [Phage-1049] | 1.67 | 0.06 | – | –
47 | TCSAGAHWTWPLCF [Phage-1044] | 1.69 | 0.06 | – | –
48 | RCAAGVMYDWPVCL [Phage-1043] | 1.7 | 0.07 | – | –
49 | TCSAGAHYPWPDCI [Phage-985] | 1.95 | 0.07 | – | –
50 | LCNAGAMYKWPTCL [Phage-987] | 1.94 | 0.06 | – | –
51 | LCNAGAPYKWPTCL [Phage-1050] | 1.66 | 0.07 | – | –
